± gives the standard deviation of the averaged measurements.
Assay: total protein half-life in vivo (active degradation + dilution); higher = more stable protein
[1] = E. coli NCM3722 delta-clpP delta-lon delta-hslV, growth: N-lim chemostat, doubling time 6 h
[2] = E. coli NCM3722 delta-clpP, growth: N-lim chemostat, doubling time 6 h
[3] = E. coli NCM3722 delta-hslV, growth: N-lim chemostat, doubling time 6 h
[4] = E. coli NCM3722 delta-lon, growth: N-lim chemostat, doubling time 6 h
[5] = E. coli NCM3722 delta-smpB, growth: N-lim chemostat, doubling time 6 h
[6] = wild type E. coli NCM3722, growth: C-lim chemostat, doubling time 3 h
[7] = wild type E. coli NCM3722, growth: C-lim chemostat, doubling time 6 h
[8] = wild type E. coli NCM3722, growth: C-lim chemostat, doubling time 12 h
[9] = wild type E. coli NCM3722, growth: N-lim chemostat, doubling time 6 h
[10] = wild type E. coli NCM3722, growth: N-lim chemostat, doubling time 12 h
[11] = wild type E. coli NCM3722, growth: P-lim chemostat, doubling time 6 h
[12] = wild type E. coli NCM3722, growth: P-lim chemostat, doubling time 12 h

Sequence	total protein half-life in vivo [1] [h]	total protein half-life in vivo [2] [h]	total protein half-life in vivo [3] [h]	total protein half-life in vivo [4] [h]	total protein half-life in vivo [5] [h]	total protein half-life in vivo [6] [h]	total protein half-life in vivo [7] [h]	total protein half-life in vivo [8] [h]	total protein half-life in vivo [9] [h]	total protein half-life in vivo [10] [h]	total protein half-life in vivo [11] [h]	total protein half-life in vivo [12] [h]
MTMSLEVFEKLEAKVQQAIDTITLLQMEIEELKEKNNSLSQEVQNAQHQREELERENNHLKEQQNGWQERLQALLGRMEEV [P0AF36]	7.42 ± 0.15	5.62 ± 0.36	3.23	4.06 ± 0.25	3.08 ± 0.33	2.8 ± 0.15	5.01 ± 0.5	8.02 ± 1.9	2.88 ± 0.047	5.13 ± 2.1	4.53	8.35 ± 0.092
MYHDVSYLLSRLINGPLSLRQIYFASSNGPVPDLAYQVDFPRLEIVLEGEFVDTGAGATLVPGDVLYVPAGGWNFPQWQAPATTFSVLFGKQQLGFSVVQWDGKQYQNLAKQHVARRGPRIGSFLLQTLNEMQMQPQEQQTARLIVASLLSHCRDLLGSQIQTASRSQALFEAIRDYIDERYASALTRESVAQAFYISPNYLSHLFQKTGAIGFNEYLNHTRLEHAKTLLKGYDLKVKEVAHACGFVDSNYFCRLFRKNTERSPSEYRRQYHSQLTEKPTTPE	5.77 ± 0.063	3.94	4.1	5.72 ± 1.3	4.21 ± 0.49	2.6	6.09 ± 1.5	8.5207 ± 0.0056	3.8 ± 0.55	6.04	3.26	5.79 ± 0.83
MANPTVIKLQDGNVMPQLGLGVWQASNEEVITAIQKALEVGYRSIDTAAAYKNEEGVGKALKNASVNREELFITTKLWNDDHKRPREALLDSLKKLQLDYIDLYLMHWPVPAIDHYVEAWKGMIELQKEGLIKSIGVCNFQIHHLQRLIDETGVTPVINQIELHPLMQQRQLHAWNATHKIQTESWSPLAQGGKGVFDQKVIRDLADKYGKTPAQIVIRWHLDSGLVVIPKSVTPSRIAENFDVWDFRLDKDELGEIAKLDQGKRLGPDPDQFGG	5.16 ± 0.27	5.3 ± 0.9	5.36 ± 0.068	5.7 ± 0.23	5.17 ± 0.29	3.7 ± 0.23	6.23 ± 0.55	11.8 ± 1.7	4.8 ± 0.42	8.91 ± 0.27	5.85 ± 0.2	13.3 ± 2.8
MKRNLLSSAIIVAIMSLGLTGCDDKKAETETLPPANSQPAAPAPEAKPTEAPVAKAEAKPETPAQPVVDEQAVFDEKMDVYIKCYNKLQIPVQRSLARYADWLKDFKQGPTGEERTVYGIYGISESNLAECEKGVKSAVALTPALQPIDGVAVSYIDAAVALGNTINEMDKYYTQENYKDDAFAKGKTLHQTFLKNLEAFEPVAESYHAAIQEINDKRQLAELKNIEEREGKTFHYYSLAVMISAKQINNLISQDKFDAEAAMKKVSELETLVAQAKEADKGGMNFSFINSAGQYQLEAKKYVRRIRDKVPYSDWDKEQLQDANSSWMVEDSFPRALREYNEMVDDYNSLR	6				5.67 ± 0.5		6.58		6.45	10.5	5.81 ± 0.094	10
MGQLIDGVWHDTWYDTKSTGGKFQRSASAFRNWLTADGAPGPTGTGGFIAEKDRYHLYVSLACPWAHRTLIMRKLKGLEPFISVSVVNPLMLENGWTFDDSFPGATGDTLYQNEFLYQLYLHADPHYSGRVTVPVLWDKKNHTIVSNESAEIIRMFNTAFDALGAKAGDYYPPALQTKIDELNGWIYDTVNNGVYKAGFATSQEAYDEAVAKVFESLARLEQILGQHRYLTGNQLTEADIRLWTTLVRFDPVYVTHFKCDKHRISDYLNLYGFLRDIYQMPGIAETVNFDHIRNHYFRSHKTINPTGIISIGPWQDLDEPHGRDVRFG	6.05 ± 0.31	4.89 ± 0.16		5.03 ± 0.45	5.01 ± 0.34	3.53 ± 0.54	5.64 ± 0.061		5.04 ± 0.15	8.28 ± 0.38	5.99 ± 0.58	12.3 ± 0.26
MSFDLIIKNGTVILENEARVVDIAVKGGKIAAIGQDLGDAKEVMDASGLVVSPGMVDAHTHISEPGRSHWEGYETGTRAAAKGGITTMIEMPLNQLPATVDRASIELKFDAAKGKLTIDAAQLGGLVSYNIDRLHELDEVGVVGFKCFVATCGDRGIDNDFRDVNDWQFFKGAQKLGELGQPVLVHCENALICDELGEEAKREGRVTAHDYVASRPVFTEVEAIRRVLYLAKVAGCRLHVCHVSSPEGVEEVTRARQEGQDVTCESCPHYFVLDTDQFEEIGTLAKCSPPIRDLENQKGMWEKLFNGEIDCLVSDHSPCPPEMKAGNIMKAWGGIAGLQSCMDVMFDEAVQKRGMSLPMFGKLMATNAADIFGLQQKGRIAPGKDADFVFIQPNSSYVLTNDDLEYRHKVSPYVGRTIGARITKTILRGDVIYDIEQGFPVAPKGQFILKHQQ	4.05			3.35		1.23 ± 0.55	2.5 ± 0.8	2.38 ± 0.29				5.33
MKTMLAAYLPGNSTVDLREVAVPTPGINQVLIKMKSSGICGSDVHYIYHQHRATAAAPDKPLYQGFINGHEPCGQIVAMGQGCRHFKEGDRVLVYHISGCGFCPNCRRGFPISCTGEGKAAYGWQRDGGHAEYLLAEEKDLILLPDALSYEDGAFISCGVGTAYEGILRGEVSGSDNVLVVGLGPVGMMAMMLAKGRGAKRIIGVDMLPERLAMAKQLGVMDHGYLATTEGLPQIIAELTHGGADVALDCSGNAAGRLLALQSTADWGRVVYIGETGKVEFEVSADLMHHQRRIIGSWVTSLFHMEKCAHDLTDWKLWPRNAITHRFSLEQAGDAYALMASGKCGKVVINFPD	4.41 ± 0.15	2.87	2.466 ± 0.011	2.619 ± 0.012	1.84 ± 1.1		2.74	5.33 ± 3.6	2.17 ± 0.04	3.6 ± 0.11	4.27 ± 0.51	8.54 ± 2.2
